This note sets out measurements from article PMC7591906, “pHLIP ICG for delineation of tumors and blood flow during fluorescence-guided surgery” (Scientific Reports, 2020).

SMILES strings stand for the structures. “Also recorded” adds a separate entry of the source. Peptide text beside a SMILES is read from it. * marks the point of attachment. X1 = CC1(C)C(/C=C/C=C/C=C/C=C2/N(CCCCCC(=O)NCCN3C(=O)CC(*)C3=O)c3ccc4ccccc4c3C2(C)C)=[N+](CCCCS(=O)(=O)[O-])c2ccc3ccccc3c21

Data set [1] can be described thus: Kinetics of insertion into POPC liposomes (stopped-flow tryptophan fluorescence). The format is physicochemical. As to conditions: pH drop from pH 8 to pH 5, Trp fluorescence, bi-exponential fit, about 15% of final adjustment. On the procedure: POPC (1-palmitoyl-2-oleoyl-sn-glycero-3-phosphocholine, Avanti Polar Lipids, Inc.) liposomes were used in biophysical measurements to mimic cell membranes and investigate the pHLIP ICG interactions with lipid bilayers. Large unilamellar vesicles (LUVs) were prepared by extrusion. POPC dissolved in chloroform was desolvated in a rotary evaporator and placed under high vacuum for 2 hours to create a phospholipid film. Lipids were then rehydrated in phosphate buffer (pH8) and repeatedly extruded through membranes with a pore size of 100 nm to make LUVs.
To follow pHLIP ICG insertion into the lipid bilayer of POPC liposomes in real-time, kinetics measurements were performed using a SFM-300 mixing system (Bio-Logic Science Instruments) in combination with a MOS-450 spectrometer with its temperature control set to 25.0°C. pHLIP ICG pre-mixed with POPC liposomes in phosphate buffer at pH8 were mixed (5 ms dead time) with acid to drop the pH from pH8 to pH5 and promote pHLIP peptide insertion into the bilayers. The insertion process was monitored by recording changes of the tryptophan fluorescence of pHLIP peptide excited at 295 nm and using a cut off filter at 320 nm.

The test system of data set [2] is 86 enzyme and receptor targets. Put plainly: Safety pharmacology profiling, enzyme and receptor binding panel (Eurofins Panlabs). As to conditions: 2 µM; all targets except progesterone receptor B. On the procedure:
The pHLIP ICG enzyme binding assays were performed by Eurofins Panlabs, Inc. according to standard assay protocols. […] The most significant inhibitory effect of pHLIP ICG was observed on progesterone B and was followed by an additional study to identify IC50 values, which were determined by a non-linear least square regression analysis using MathIQTM (ID Business Solutions Ltd., UK). The Ki values were calculated by the equation from Cheng and Prusoff [Cheng, Y., Prusoff, W.H., Biochem. Pharmacol. 22:3099-3108, 1973] using the observed IC50 of pHLIP ICG , the concentration of radioligand employed in the assay, and the historical values for the KD of the ligand (Eurofins Panlabs data). The Hill coefficient (nH), defining the slope of the competitive binding curve, was calculated using MathIQTM. […]

The test system of data set [3] is 4T1 tumor. The data set can be described thus: Biodistribution and kinetics, ex vivo fluorescence imaging of organs. The data set is classed as in vivo, BALB/c mice. As to conditions: post-administration, decay after 6 h. On the procedure:
BALB/cAcNHsd mice ranging in age from 5 to 6 weeks obtained from Envigo RMS, Inc. were used in the study. Mouse mammary 4T1 cancer cells were subcutaneously implanted in the right flank (8 x 10^5 cells/0.1 mL/flank) of adult female or male mice. The triple-negative 4T1 tumor model closely mimics stage IV of human breast cancer. When tumors reached […] in diameter, single tail vein injections of 0.5 mg/kg of pHLIP ICG in sterile PBS, or PBS with 5% DMSO or 5% Ethanol (vol:vol) (volume of the injection was 100 μl) were performed. Animals were euthanized 5 min, 1, 2, 4, 6, 16, 26 and 48 hrs after pHLIP ICG administration. Several animals were used for each time point plus seven control animals (no pHLIP ICG administration). Tumor, muscles, skin, heart, lungs, liver, spleen, kidneys, brain, pancreas, bone, stomach, small and large intestines were collected, and imaged immediately after necropsy. […] The background signal was determined by introducing an intensity threshold. All the pixels with intensity above the set threshold were counted and the average intensity per pixel was calculated. For organs for which the highest illumination light intensity produced a saturated image, the medium illumination light intensity images were analyzed, then converted to a comparison using experimentally established conversion curves.

Data set [4] relates to human peripheral blood lymphocytes. Put plainly: In vitro mammalian cell micronucleus test. The format is cell-based. To be noted: up to 0.5 mg/mL. On the procedure: The objective of this study performed at CRL was to determine the potential genotoxicity of pHLIP ICG using an in vitro mammalian cell micronucleus test in human peripheral blood lymphocytes.
Human peripheral blood lymphocytes were treated with pHLIP ICG at levels up to the standard limit of 0.5 mg/mL. […] The negative control results were within the laboratory negative historical control range. Lymphocytes were also incubated with standard positive controls, which caused statistically significant increases in the proportion of cells with micronuclei, confirming the sensitivity of the test system and the activity of the S9 mix. All criteria for a valid assay were therefore met.

As for `CC(C)C[C@H](NC(=O)[C@H](Cc1ccc(O)cc1)NC(=O)[C@H](C)NC(=O)[C@H](CCCNC(=N)N)NC(=O)[C@H](Cc1c[nH]c2ccccc12)NC(=O)[C@@H]1CCCN1C(=O)[C@H](CC(N)=O)NC(=O)[C@H](CCC(N)=O)NC(=O)[C@H](CC(=O)O)NC(=O)[C@H](CC(=O)O)NC(=O)[C@H](CSC1CC(=O)N(CCNC(=O)CCCCCN2/C(=C/C=C/C=C/C=C/C3=[N+](CCCCS(=O)(=O)[O-])c4ccc5ccccc5c4C3(C)C)C(C)(C)c3c2ccc2ccccc32)C1=O)NC(=O)[C@H](C)N)C(=O)N[C@@H](CC(=O)O)C(=O)N[C@@H](CC(C)C)C(=O)N[C@@H](CC(C)C)C(=O)N[C@@H](Cc1ccccc1)C(=O)N1CCC[C@H]1C(=O)N[C@H](C(=O)N[C@@H](CC(=O)O)C(=O)N[C@H](C(=O)N[C@@H](CC(C)C)C(=O)N[C@@H](CC(C)C)C(=O)N[C@@H](CC(C)C)C(=O)N[C@@H](CC(=O)O)C(=O)N[C@@H](CC(C)C)C(=O)N[C@@H](CC(C)C)C(=O)N[C@@H](Cc1c[nH]c2ccccc12)C(=O)N[C@@H](C)C(=O)O)[C@@H](C)O)[C@@H](C)O` (some centres unmarked) [pHLIP ICG] (H-AC(X1)DDQNPWRAYLDLLFPTDTLLLDLLWA-OH), the “Rate of insertion into lipid bilayer, slow component” value in data set [1] stood at 0.077 s⁻¹. Also, the “Inhibitory effect on 86 enzyme and receptor targets” value in data set [2] is listed as “No inhibitory effect was observed”. For the same compound, in data set [3], the “Time of maximum signal in the liver” value worked out at 1 h. The “Cytotoxicity or precipitation in the assay” value in data set [4] is listed as “no pHLIP ICG related cytotoxicity or precipitation was observed”. Besides, the Induction of micronuclei entry in data set [4] (4 h without/with S9, 24 h without S9) is on record as “did not show any evidence of genotoxic activity; also recorded: negative for the induction of micronuclei”.
